Source: US20260053942A1 (Astellas, published 2026)

Biological target: T1, human TROP2 as used in the Biacore measurements (human, UniProt P09758 27-274)
T1 sequence: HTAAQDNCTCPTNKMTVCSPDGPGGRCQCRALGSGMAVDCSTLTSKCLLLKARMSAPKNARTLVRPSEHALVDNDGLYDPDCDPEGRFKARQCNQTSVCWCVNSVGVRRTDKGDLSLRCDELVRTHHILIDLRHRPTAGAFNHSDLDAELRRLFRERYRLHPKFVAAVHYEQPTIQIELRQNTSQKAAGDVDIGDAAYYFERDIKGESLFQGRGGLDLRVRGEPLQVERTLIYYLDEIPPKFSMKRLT
Test: SPR (Biacore), format not stated

Kd: 1.1 nM
B1: 2293-C04, affinity matured anti-Trop2 antibody from a synthetic ribosome display human antibody library (antibody, V domains shown)
VH: EVQLVESGGGLVQPGGSLRLSCAASGFNISNKWIHWVRQAPGKGLEWVGWIAPSSGDTDYADSVKGRFTISADTSKNTAYLQMNSLRAEDTAVYYCAREGYNWYWYVLDYWGQGTLVTVSS
VL: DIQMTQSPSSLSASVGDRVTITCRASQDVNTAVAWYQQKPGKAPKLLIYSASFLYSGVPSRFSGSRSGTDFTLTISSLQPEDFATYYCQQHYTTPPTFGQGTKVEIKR
modifications: SEQ ID NO 17 is listed with pAcF at K42; the filing does not say whether the antibody measured by Biacore carried it
